Like-named read-outs stand apart in the source and are kept apart here.
B1: 50 bp duplex (dsDNA)
DNA 1: TTCAATCCCCGTCTGTCCCCCGATCCCCTGCTCGTAGGCGTGCTTGACCG
DNA 2: CGGTCAAGCACGCCTACGAGCAGGGGATCGGGGGACAGACGGGGATTGAA
B2: 50 bp duplex with tandem AA and CT loops (dsDNA)
DNA 1: ACAGTGGAGTAGGCTACACCTACTCTTTGTAAGAATTTTGCAAAAAGTAC
DNA 2: GTACTTTTTGCAAAATTCAAACAAAGAGTTCGTGTAGCCTACTCCACTGT

Tests used:
HMO2 (NHP10) [1] = target: T1, HMO2 (NHP10) (Saccharomyces cerevisiae, UniProt Q03435 1-203); assay: EMSA
T1 sequence: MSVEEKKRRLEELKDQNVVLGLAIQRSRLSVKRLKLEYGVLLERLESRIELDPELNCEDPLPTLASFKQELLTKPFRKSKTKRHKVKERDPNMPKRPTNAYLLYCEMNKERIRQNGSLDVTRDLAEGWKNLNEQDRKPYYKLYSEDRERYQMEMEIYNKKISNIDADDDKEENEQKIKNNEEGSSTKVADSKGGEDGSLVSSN

HMO2 (NHP10) [2] = target: T1, HMO2 (NHP10); assay: EMSA; remark: listed apart in the source

Binder	binding result (HMO2 (NHP10) [1])	binding result (HMO2 (NHP10) [2])
B1	no binding	
B2		binds
